Assays:
Assay in all cases: cell-based or functional assay
[1] = target: murine ICAM-1 (CD54) expressed on MC38 cells infected with rV-ICAM-1 (murine) (UniProt P13597)
[2] = target: murine LFA-3 (CD48) expressed on MC38 cells infected with rV-LFA-3 (murine) (UniProt P18181)
[3] = target: murine B7-1 (CD80) expressed on MC38 cells infected with rV-B7-1 (murine) (UniProt Q00609)

## Hamster anti-murine CD54 (ICAM-1; clone 3E2) (antibody)
[1]
  reduction of the increased T-cell proliferation supported by MC38/ICAM-1 (Con A, 3H-thymidine): 88%

## Hamster anti-murine CD48 (BCM-1 clone HM48-1) (antibody)
[2]
  reduction of the increased T-cell proliferation supported by MC38/LFA-3 (Con A, 3H-thymidine): 98%

## Hamster anti-murine CD80 (B7-1; clone 16-10A1) (antibody)
[3]
  inhibition of the increased T-cell proliferation supported by MC38/B7-1 (Con A, 3H-thymidine): 83%

— patent US20070048860A1
